Laboratory results as given in patent US20250059270A1 (SESEN BIO, published 2025).
One block for each binder: values may come before it.

How the values were obtained:
human IL-6 [1] = target: T1, human IL-6 (human, UniProt P05231 30-212); assay: cell-based or functional assay
rabbit IL-6 = target: T2, rabbit IL-6 (rabbit, UniProt Q9MZR1 27-241, limits assumed); assay: statement in the rabbit PK example; no assay named
T2 sequence (looked up): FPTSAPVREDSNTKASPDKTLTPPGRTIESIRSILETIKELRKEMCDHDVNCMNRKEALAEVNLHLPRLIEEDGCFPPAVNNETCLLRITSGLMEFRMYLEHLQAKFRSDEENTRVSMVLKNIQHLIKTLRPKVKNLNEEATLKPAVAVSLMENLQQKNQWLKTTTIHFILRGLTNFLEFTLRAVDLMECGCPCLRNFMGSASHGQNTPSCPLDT

human IL-6 [2] = target: T1, human IL-6; assay: cell-based or functional assay; remark: listed apart in the source
hyper IL-6 = assay: cell-based or functional assay
human IL-6 [3] = target: T1, human IL-6; assay: functional epitope mapping by ELISA
human IL-6 [4] = target: T1, human IL-6; assay: yeast surface display of Fab, flow cytometry (APC-A = bound biotinylated IL-6, FITC-A = display) after overnight competition with 2 µM IL-6

B1: EBI-029 IgG2 (antibody)
heavy: QVQLVQSGAEVKKPGSSVKVSCKASGYALSNYLIEWVRQAPGQGLEWMGVITPGSGTINYAQKFQGRVTITADESTSTAYMELSSLRSEDTAVYYCARSRWDPLYYYALEYWGQGTTVTVSSASTKGPSVFPLAPCSRSTSESTAALGCLVKDYFPEPVTVSWNSGALTSGVHTFPAVLQSSGLYSLSSVVTVPSSNFGTQTYTCNVDHKPSNTKVDKTVERKCCVECPPCPAPPVAGPSVFLFPPKPKDTLMISRTPEVTCVVVDVSHEDPEVQFNWYVDGVEVHNAKTKPREEQFNSTFRVVSVLTVVHQDWLNGKEYKCKVSNKGLPAPIEKTISKTKGQPREPQVYTLPPSREEMTKNQVSLTCLVKGFYPSDIAVEWESNGQPENNYKTTPPMLDSDGSFFLYSKLTVDKSRWQQGNVFSCSVMHEALHNHYTQKSLSLSPGK
light: DIVMTQSPDSLAVSLGERATINCRASESVDNYGIPFMNWYQQKPGQPPKLLIYAASNRGSGVPDRFSGSGSGTDFTLTISSLQAEDVAVYYCQQSEEVPLTFGQGTKLEIKRTVAAPSVFIFPPSDEQLKSGTASVVCLLNNFYPREAKVQWKVDNALQSGNSQESVTEQDSKDSTYSLSSTLTLSKADYEKHKVYACEVTHQGLSSPVTKSFNRGEC
notes: also called 018IgG2
IC50, HEK-Blue IL6 reporter cells, 20 pM IL-6 (human IL-6 [1]): 47 pM | binding result (rabbit IL-6): no binding

B2: EBI-031 (EBI-030 IgG2-H311A) (antibody)
heavy: QVQLVQSGAEVKKPGSSVKVSCKASGYVLPNYLIEWVRQAPGQGLEWMGVTTPGGGTINYAQKFQGRVTITADESTSTAYMELSSLRSEDTAVYYCARSRWDPLYYYALEYWGQGTTVTVSSASTKGPSVFPLAPCSRSTSESTAALGCLVKDYFPEPVTVSWNSGALTSGVHTFPAVLQSSGLYSLSSVVTVPSSNFGTQTYTCNVDHKPSNTKVDKTVERKCCVECPPCPAPPVAGPSVFLFPPKPKDTLMISRTPEVTCVVVDVSHEDPEVQFNWYVDGVEVHNAKTKPREEQFNSTFRVVSVLTVVAQDWLNGKEYKCKVSNKGLPAPIEKTISKTKGQPREPQVYTLPPSREEMTKNQVSLTCLVKGFYPSDIAVEWESNGQPENNYKTTPPMLDSDGSFFLYSKLTVDKSRWQQGNVFSCSVMHEALHNHYTQKSLSLSPGK
light: DIVMTQSPDSLAVSLGERATINCRASESVDNYGIPFMNWYQQKPGQPPKLLIYAASNRGSGVPDRFSGSGSGTDFTLTISSLQAEDVAVYYCQQSEEVPLTFGQGTKLEIKRTVAAPSVFIFPPSDEQLKSGTASVVCLLNNFYPREAKVQWKVDNALQSGNSQESVTEQDSKDSTYSLSSTLTLSKADYEKHKVYACEVTHQGLSSPVTKSFNRGEC
notes: also called EBI-030-H311A
IC50, cis-signaling, HEK-Blue IL6 cells, 20 pM free IL-6 (human IL-6 [2]): 14.2 pM | IC50, fold less than that of EBI-029, HEK-Blue IL6 (human IL-6 [2]): > 75 fold | IC90, fold less than that of EBI-029, HEK-Blue IL6 (human IL-6 [2]): ~350 fold | fold decrease in IC50 compared with EBI-029, HEK-Blue IL6 (human IL-6 [2]): ~50 fold | fold decrease in IC90 compared with EBI-029, HEK-Blue IL6 (human IL-6 [2]): > 100 fold | fold greater potency than tocilizumab, cis-signaling, HEK-Blue IL6 cells (human IL-6 [2]): > 900 fold | IC50, trans-signaling, HEK-Blue IL6 cells, 200 pM hyper IL-6 (hyper IL-6): 32 pM | IC50, HEK-Blue IL6 reporter cells, 20 pM IL-6 (human IL-6 [1]): 0.6 pM | binding result (rabbit IL-6): no binding

B3: EBI-030 IgG2 (antibody)
heavy: QVQLVQSGAEVKKPGSSVKVSCKASGYVLPNYLIEWVRQAPGQGLEWMGVTTPGGGTINYAQKFQGRVTITADESTSTAYMELSSLRSEDTAVYYCARSRWDPLYYYALEYWGQGTTVTVSSASTKGPSVFPLAPCSRSTSESTAALGCLVKDYFPEPVTVSWNSGALTSGVHTFPAVLQSSGLYSLSSVVTVPSSNFGTQTYTCNVDHKPSNTKVDKTVERKCCVECPPCPAPPVAGPSVFLFPPKPKDTLMISRTPEVTCVVVDVSHEDPEVQFNWYVDGVEVHNAKTKPREEQFNSTFRVVSVLTVVHQDWLNGKEYKCKVSNKGLPAPIEKTISKTKGQPREPQVYTLPPSREEMTKNQVSLTCLVKGFYPSDIAVEWESNGQPENNYKTTPPMLDSDGSFFLYSKLTVDKSRWQQGNVFSCSVMHEALHNHYTQKSLSLSPGK
light: DIVMTQSPDSLAVSLGERATINCRASESVDNYGIPFMNWYQQKPGQPPKLLIYAASNRGSGVPDRFSGSGSGTDFTLTISSLQAEDVAVYYCQQSEEVPLTFGQGTKLEIKRTVAAPSVFIFPPSDEQLKSGTASVVCLLNNFYPREAKVQWKVDNALQSGNSQESVTEQDSKDSTYSLSSTLTLSKADYEKHKVYACEVTHQGLSSPVTKSFNRGEC
IC50, fold less than that of EBI-029, HEK-Blue IL6 (EBI-030 produced in HEK cells) (human IL-6 [2]): > 50 fold | IC90, fold less than that of EBI-029, HEK-Blue IL6 (EBI-030 produced in HEK cells) (human IL-6 [2]): ~4000 fold | fold decrease in IC50 compared with EBI-029, HEK-Blue IL6 (human IL-6 [2]): ~50 fold | fold decrease in IC90 compared with EBI-029, HEK-Blue IL6 (human IL-6 [2]): > 100 fold | IC50, HEK-Blue IL6 reporter cells, 20 pM IL-6 (EBI-030 CHO, stable CHO pool) (human IL-6 [1]): 1.4 pM | IC50, HEK-Blue IL6 reporter cells, 20 pM IL-6 (EBI-030 from HEK-6E cells) (human IL-6 [1]): 0.9 pM | binding result (rabbit IL-6): no binding

B6: EBI-029 Fab variant I51T/S55G (Fab, V domains shown)
VH: QVQLVQSGAEVKKPGSSVKVSCKASGYALSNYLIEWVRQAPGQGLEWMGVTTPGGGTINYAQKFQGRVTITADESTSTAYMELSSLRSEDTAVYYCARSRWDPLYYYALEYWGQGTTVTVSS
VL: DIVMTQSPDSLAVSLGERATINCRASESVDNYGIPFMNWYQQKPGQPPKLLIYAASNRGSGVPDRFSGSGSGTDFTLTISSLQAEDVAVYYCQQSEEVPLTFGQGTKLEIKR
Fold increase in binding/display over wt (human IL-6 [4]): 1.92 fold

B7: EBI-030 Fab (A28V/S30P/I51T/S55G) (Fab, V domains shown)
VH: QVQLVQSGAEVKKPGSSVKVSCKASGYVLPNYLIEWVRQAPGQGLEWMGVTTPGGGTINYAQKFQGRVTITADESTSTAYMELSSLRSEDTAVYYCARSRWDPLYYYALEYWGQGTTVTVSS
VL: DIVMTQSPDSLAVSLGERATINCRASESVDNYGIPFMNWYQQKPGQPPKLLIYAASNRGSGVPDRFSGSGSGTDFTLTISSLQAEDVAVYYCQQSEEVPLTFGQGTKLEIKR
notes: IgG1 Fab; also called A28V/S30P/I51T/S55G (EBI-030)
Fold increase in binding/display over wt (human IL-6 [4]): 4 fold

B9: EBI-029 Fab variant S30P/I51T/S55G (Fab, V domains shown)
VH: QVQLVQSGAEVKKPGSSVKVSCKASGYALPNYLIEWVRQAPGQGLEWMGVTTPGGGTINYAQKFQGRVTITADESTSTAYMELSSLRSEDTAVYYCARSRWDPLYYYALEYWGQGTTVTVSS
VL: DIVMTQSPDSLAVSLGERATINCRASESVDNYGIPFMNWYQQKPGQPPKLLIYAASNRGSGVPDRFSGSGSGTDFTLTISSLQAEDVAVYYCQQSEEVPLTFGQGTKLEIKR
Fold increase in binding/display over wt (human IL-6 [4]): 2.52 fold

B10: EBI-029 Fab variant A28V/I51T/S55G (Fab, V domains shown)
VH: QVQLVQSGAEVKKPGSSVKVSCKASGYVLSNYLIEWVRQAPGQGLEWMGVTTPGGGTINYAQKFQGRVTITADESTSTAYMELSSLRSEDTAVYYCARSRWDPLYYYALEYWGQGTTVTVSS
VL: DIVMTQSPDSLAVSLGERATINCRASESVDNYGIPFMNWYQQKPGQPPKLLIYAASNRGSGVPDRFSGSGSGTDFTLTISSLQAEDVAVYYCQQSEEVPLTFGQGTKLEIKR
Fold increase in binding/display over wt (human IL-6 [4]): 3.1 fold

More lines, now with the values ahead:

binding result (rabbit IL-6): no binding
B4: EBI-029 IgG2-H311A (antibody)
heavy: QVQLVQSGAEVKKPGSSVKVSCKASGYALSNYLIEWVRQAPGQGLEWMGVITPGSGTINYAQKFQGRVTITADESTSTAYMELSSLRSEDTAVYYCARSRWDPLYYYALEYWGQGTTVTVSSASTKGPSVFPLAPCSRSTSESTAALGCLVKDYFPEPVTVSWNSGALTSGVHTFPAVLQSSGLYSLSSVVTVPSSNFGTQTYTCNVDHKPSNTKVDKTVERKCCVECPPCPAPPVAGPSVFLFPPKPKDTLMISRTPEVTCVVVDVSHEDPEVQFNWYVDGVEVHNAKTKPREEQFNSTFRVVSVLTVVAQDWLNGKEYKCKVSNKGLPAPIEKTISKTKGQPREPQVYTLPPSREEMTKNQVSLTCLVKGFYPSDIAVEWESNGQPENNYKTTPPMLDSDGSFFLYSKLTVDKSRWQQGNVFSCSVMHEALHNHYTQKSLSLSPGK
light: DIVMTQSPDSLAVSLGERATINCRASESVDNYGIPFMNWYQQKPGQPPKLLIYAASNRGSGVPDRFSGSGSGTDFTLTISSLQAEDVAVYYCQQSEEVPLTFGQGTKLEIKRTVAAPSVFIFPPSDEQLKSGTASVVCLLNNFYPREAKVQWKVDNALQSGNSQESVTEQDSKDSTYSLSSTLTLSKADYEKHKVYACEVTHQGLSSPVTKSFNRGEC
notes: also called EBI-029-H311A

binding result (human IL-6 [3]): binds
B5: murine 64 antibody (hybridoma 64, subclone 64.58) (antibody, V domains shown)
VH: QVQLQQSGAELVRPGTSVKVSCKASGYAFSNYLIEWVKQRPGQGLEWIGVITPGSGTINYNEKFKGKAVLTADKSSSTVYMQLSSLTSDDSAVYFCAKSRWDPLYYYALEYWGQGTSVTVSS
VL: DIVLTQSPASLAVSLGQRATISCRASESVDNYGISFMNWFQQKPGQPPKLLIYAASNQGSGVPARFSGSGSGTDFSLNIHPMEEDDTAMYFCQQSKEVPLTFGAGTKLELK
notes: Murine monoclonal from a hybridoma; also called m64

binding result (rabbit IL-6): no binding
B8: EBI-029 Fab (020 Fab) (Fab, V domains shown)
VH: QVQLVQSGAEVKKPGSSVKVSCKASGYALSNYLIEWVRQAPGQGLEWMGVITPGSGTINYAQKFQGRVTITADESTSTAYMELSSLRSEDTAVYYCARSRWDPLYYYALEYWGQGTTVTVSS
VL: DIVMTQSPDSLAVSLGERATINCRASESVDNYGIPFMNWYQQKPGQPPKLLIYAASNRGSGVPDRFSGSGSGTDFTLTISSLQAEDVAVYYCQQSEEVPLTFGQGTKLEIKR
notes: 018 Fab heavy chain with DKTHT added at the C-terminus; also called the 020 molecule; WT (EBI-029)
